Laboratory results reported in patent publication US20260092115A1 (Chugai, published 2026).
Numbering of substitutions follows the chain as printed.

T1: human CTLA4 (soluble analyte of the Biacore assays of Examples 3-3, 4 and 5) (human, UniProt P16410 36-161)
T1 construct: also called hCTLA4
T1 sequence: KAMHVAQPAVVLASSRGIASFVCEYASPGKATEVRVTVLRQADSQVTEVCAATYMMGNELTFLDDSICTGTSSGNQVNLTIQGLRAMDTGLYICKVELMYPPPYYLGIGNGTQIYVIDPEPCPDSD

B1: 04H1389-G1m/04L1086-lam1 (antibody, human IgG1, lambda, V domains shown)
VH: EVQLVESGGGLVKPGGSLRLSCAASGFTFSSKTMNWVRQAPGKGLEWVSSISTQSHYIYYAESVKGRFTISRDNAKNSLYLQMNSLRAEDTAVYYCARYGKREDMLWVFDYWGQGTLVTVSS
VL: QSALTQPPSASGSPGQTVTISCDGPSTGVGDYNYVHWYQQHPGKAPKLMIYFTSKKPSGVPDRFSGSKSGNTASLTVSGLQAEDEADYFCQTYAAPLGPMFGGGTKLTVLG
B2: 04H1208-G1m/04L1407-k0MT (antibody, human IgG1, kappa, V domains shown)
VH: B1 VH with Q54R, H56G, E62R
VL: DIVMTQSPLSLPVTPGEPASISCDGPSTDVGDYNWVHWYQQKPGQAPRLLIYYTSSKPEGVPDRFSGSGSGTDFTLKISRVEAEDVGVYYCQTYAAPLGPTFGQGTKLEIKR

Key:
[1] = target: T1, human CTLA4 (soluble analyte of the …); experiment: SPR 37C, ATP 10 µM
Method: Biacore T200 was used to measure the binding of the generated antibodies to human CTLA4. 20 mM ACES (pH 7.4), 150 mM NaCl, 2 mM MgCl₂, 0.05% Tween 20 with ATP added to the desired concentration was used as the running buffer, and the assay was performed at 37° C. First, Protein G (CALBIOCHEM) was immobilized onto a Series S Sensor Chip CM3 (GE Healthcare), and the antibodies were captured by interacting an antibody solution prepared in an ATP-free running buffer with the chip. Next, by interacting with a human CTLA4 solution prepared in a running buffer containing ATP to the desired concentration, or a human CTLA4 solution prepared in a running buffer containing no ATP, the binding ability of the antibody to human CTLA4 in the presence or absence of ATP was evaluated. Chips were regenerated with 25 mM NaOH and 10 mM Glycine-HCl (pH 1.5), and assay was performed by repeatedly capturing antibodies. The dissociation constant of each antibody for CTLA4 was calculated using Biacore T200 Evaluation Software 2.0. Specifically, the binding rate constant ka (L/mol/s) and the dissociation rate constant kd (1/s) were calculated by global fitting of the sensorgrams obtained by the measurement, using a 1:1 Langmuir binding model. The dissociation constant KD (mol/L) was calculated from those values. Alternatively, the dissociation constant KD (mol/L) was calculated by the steady state model. […]

[2] = target: T1, human CTLA4 (soluble analyte of the …); experiment: SPR 37C, Ab on Protein G, 1000 nM CTLA4, no ATP
Method: (§1) Next, by interacting with a human CTLA4 solution prepared in a running buffer containing ATP to the desired concentration, or a human CTLA4 solution prepared in a running buffer containing no ATP, the binding ability of the antibody to human CTLA4 in the presence or absence of ATP was evaluated. Chips were regenerated with 25 mM NaOH and 10 mM Glycine-HCl (pH 1.5), and assay was performed by repeatedly capturing antibodies. The dissociation constant of each antibody for CTLA4 was calculated using Biacore T200 Evaluation Software 2.0. Specifically, the binding rate constant ka (L/mol/s) and the dissociation rate constant kd (1/s) were calculated by global fitting of the sensorgrams obtained by the measurement, using a 1:1 Langmuir binding model. The dissociation constant KD (mol/L) was calculated from those values. Alternatively, the dissociation constant KD (mol/L) was calculated by the steady state model. In addition, the binding amount of CTLA4 per unit amount of antibody was calculated by correcting the amount of CTLA4 bound as calculated from the sensorgram obtained by the assay with the amount of antibody captured onto the chip surface.
(§2) Biacore T200 was used to evaluate the binding of the generated variants to ATP and to human CTLA4. The assay of binding to ATP was performed at 37° C. using 20 mM ACES (pH 7.4), 150 mM NaCl, 2 mM MgCl₂, 0.05% Tween20 as the running buffer. First, Sure Protein A (GE Healthcare) was immobilized onto a Series S Sensor Chip CM3 (GE Healthcare), and the antibodies were captured onto the chip by interacting an antibody solution prepared in the running buffer. Next, the binding ability to the antibody was evaluated by interacting with an ATP solution prepared in the running buffer. Chips were regenerated with 25 mM NaOH and 10 mM Glycine-HCl (pH 1.5) and assay was performed by repeatedly capturing antibodies. For the binding amount of each antibody to ATP, the binding amount of ATP per unit amount of antibody was calculated by correcting the amount of binding when ATP was injected at a concentration of 100 nM with the amount of antibody captured onto the chip surface. Binding to human CTLA4 was measured using Biacore T200 by the method described in Example 3-3.

[3] = target: T1, human CTLA4 (soluble analyte of the …); experiment: SPR 37C, Ab on Protein G, 1000 nM CTLA4, ATP 10 uM
Method: as §1, §2

[4] = target: T1, human CTLA4 (soluble analyte of the …); experiment: SPR 37C, Ab on Protein G, 1000 nM CTLA4, ATP 100 uM
Method: as §1, §2

[5] = target: T1, human CTLA4 (soluble analyte of the …); experiment: SPR 37C, Ab on Protein G, 1000 nM CTLA4, ATP 1 uM
Method: as §1, §2

mCTLA4-His = target: T2, mCTLA4-His (mouse, UniProt P09793 36-161); experiment: SPR 37C, ATP 100 µM
T2 construct: also called mouse CTLA4; Mouse CTLA4

Binder | fold enhancement of binding ability against the parent antibody 04H1207-G1m/04L1086-lam1 [1] [fold] | Binding to Human CTLA4 (amount per unit antibody) [2] | Binding to Human CTLA4 (amount per unit antibody) [3] | Binding to Human CTLA4 (amount per unit antibody) [4] | Binding to Human CTLA4 (amount per unit antibody) [5] | fold weaker binding ability to mouse CTLA4 than to human CTLA4 (mCTLA4-His) [fold]
B1 | ~10 | 0.022 | 0.189 | 0.193 | 0.138 | 
B2 |  |  |  |  |  | ~2
